Assay results taken from patent publication US20110105394A1 (Novo Nordisk, published 2011).
*1 amine or outer side, *2 acyl side, *3 side chain or, on linkers, in order; H or OH if unused. Bridges are numbered along the chain shown (N, C = ends). Where no end group is shown, it is not given here. The star is where a group is joined. C20 diacid = O=C(O)CCCCCCCCCCCCCCCCCCC(=O)*; γGlu = O=C(O)[C@H](CCC(=O)[*:2])N[*:1]

B1: N-alpha-[3-(2-{2-[2-(2-{2-[2-(2-{2-[(S)-4-Carboxy-4-(17-carboxyheptadecanoylamino) … (peptide)
peptide: RCNTATCATQRLANFLHHSSNNFGPILPPTNVGSNTY-NH2
modifications: disulfide 2-7; not fully specified (N-terminus); printed as N-alpha-[3-(2-{2-[2-(2-{2-[2-(2-{2-[(S)-4-Carboxy-4-(17-carboxyheptadecanoylamino) butyrylamino]ethoxy}ethoxy)ethoxy]ethoxy}ethoxy)ethoxy]ethoxy}ethoxy)propionylamino][Arg1,His17]-pramlintide
B2: N-alpha-[(S)-4-Carboxy-4-(19-carboxynonadecanoylamino)butyryl]-[Glu 1,His17]-pramlintide (peptide)
peptide: {C20 diacid-γGlu}-ECNTATCATQRLANFLHHSSNNFGPILPPTNVGSNTY-NH2
modifications: disulfide 2-7
SMILES: CC[C@H](C)[C@H](NC(=O)[C@@H]1CCCN1C(=O)CNC(=O)[C@H](Cc1ccccc1)NC(=O)[C@H](CC(N)=O)NC(=O)[C@H](CC(N)=O)NC(=O)[C@H](CO)NC(=O)[C@H](CO)NC(=O)[C@H](Cc1c[nH]cn1)NC(=O)[C@H](Cc1c[nH]cn1)NC(=O)[C@H](CC(C)C)NC(=O)[C@H](Cc1ccccc1)NC(=O)[C@H](CC(N)=O)NC(=O)[C@H](C)NC(=O)[C@H](CC(C)C)NC(=O)[C@H](CCCNC(=N)N)NC(=O)[C@H](CCC(N)=O)NC(=O)[C@@H](NC(=O)[C@H](C)NC(=O)[C@@H]1CSSC[C@H](NC(=O)[C@H](CCC(=O)O)NC(=O)CC[C@H](NC(=O)CCCCCCCCCCCCCCCCCCC(=O)O)C(=O)O)C(=O)N[C@@H](CC(N)=O)C(=O)N[C@@H]([C@@H](C)O)C(=O)N[C@@H](C)C(=O)N[C@@H]([C@@H](C)O)C(=O)N1)[C@@H](C)O)C(=O)N[C@@H](CC(C)C)C(=O)N1CCC[C@H]1C(=O)N1CCC[C@H]1C(=O)N[C@H](C(=O)N[C@@H](CC(N)=O)C(=O)N[C@H](C(=O)NCC(=O)N[C@@H](CO)C(=O)N[C@@H](CC(N)=O)C(=O)N[C@H](C(=O)N[C@@H](Cc1ccc(O)cc1)C(N)=O)[C@@H](C)O)C(C)C)[C@@H](C)O
B3: N-alpha-[(S)-4-Carboxy-4-(19-carboxynonadecanoylamino)butyryl]-[His17,Asp31]-pramlintide (2-37) (peptide)
peptide: {C20 diacid-γGlu}-CNTATCATQRLANFLHHSSNNFGPILPPTDVGSNTY-NH2
modifications: disulfide 1-6
SMILES: CC[C@H](C)[C@H](NC(=O)[C@@H]1CCCN1C(=O)CNC(=O)[C@H](Cc1ccccc1)NC(=O)[C@H](CC(N)=O)NC(=O)[C@H](CC(N)=O)NC(=O)[C@H](CO)NC(=O)[C@H](CO)NC(=O)[C@H](Cc1c[nH]cn1)NC(=O)[C@H](Cc1c[nH]cn1)NC(=O)[C@H](CC(C)C)NC(=O)[C@H](Cc1ccccc1)NC(=O)[C@H](CC(N)=O)NC(=O)[C@H](C)NC(=O)[C@H](CC(C)C)NC(=O)[C@H](CCCNC(=N)N)NC(=O)[C@H](CCC(N)=O)NC(=O)[C@@H](NC(=O)[C@H](C)NC(=O)[C@@H]1CSSC[C@H](NC(=O)CC[C@H](NC(=O)CCCCCCCCCCCCCCCCCCC(=O)O)C(=O)O)C(=O)N[C@@H](CC(N)=O)C(=O)N[C@@H]([C@@H](C)O)C(=O)N[C@@H](C)C(=O)N[C@@H]([C@@H](C)O)C(=O)N1)[C@@H](C)O)C(=O)N[C@@H](CC(C)C)C(=O)N1CCC[C@H]1C(=O)N1CCC[C@H]1C(=O)N[C@H](C(=O)N[C@@H](CC(=O)O)C(=O)N[C@H](C(=O)NCC(=O)N[C@@H](CO)C(=O)N[C@@H](CC(N)=O)C(=O)N[C@H](C(=O)N[C@@H](Cc1ccc(O)cc1)C(N)=O)[C@@H](C)O)C(C)C)[C@@H](C)O

Biological target: T1, Amylin 3(a) receptor (human calcitonin receptor (CTa) with RAMP-3) (human, UniProt P30988 25-474; O60896 24-148, limits assumed)
T1 sequence (looked up) 1: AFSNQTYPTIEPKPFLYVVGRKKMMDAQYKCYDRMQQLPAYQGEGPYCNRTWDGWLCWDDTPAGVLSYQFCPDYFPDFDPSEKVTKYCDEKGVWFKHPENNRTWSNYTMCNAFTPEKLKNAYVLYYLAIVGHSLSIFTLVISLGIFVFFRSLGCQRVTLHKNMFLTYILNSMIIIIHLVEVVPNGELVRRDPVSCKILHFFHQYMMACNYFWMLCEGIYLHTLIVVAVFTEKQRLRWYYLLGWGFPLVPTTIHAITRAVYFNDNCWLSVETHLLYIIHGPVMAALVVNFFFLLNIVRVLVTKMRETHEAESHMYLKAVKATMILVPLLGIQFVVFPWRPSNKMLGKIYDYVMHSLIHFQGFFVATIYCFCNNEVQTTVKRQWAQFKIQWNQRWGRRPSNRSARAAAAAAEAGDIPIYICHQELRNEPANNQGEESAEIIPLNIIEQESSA
T1 sequence (looked up) 2: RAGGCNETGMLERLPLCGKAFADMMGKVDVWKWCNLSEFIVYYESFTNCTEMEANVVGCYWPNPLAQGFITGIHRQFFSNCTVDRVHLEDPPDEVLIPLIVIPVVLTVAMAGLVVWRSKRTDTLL
Assay: cell-based or functional assay

Binder | Potency Luciferase [nM]
B1 | 0.08
B2 | 0.2
B3 | 0.06
